# Data as given in patent US20260049138A1 (Chugai, published 2026).
# Where a chain is given by its changes, count along the chain named. Numbers in names are those of the source.
# B1: GLS3000 V94Y one-arm antibody (antibody, human IgG1, kappa, L234A L235A, N297A, name in Kabat numbering)
# heavy: QVQLVESGGGVVQPGRSLRLSCAASGFTFSNAWMHWVRQAPGKGLEWVAQIKAKSNNYATYYAESVKGRFTISRDDSKNSLYLQMNSLKTEDTAVYYCRYVHYGAYYGVDAWGQGTTVTVSSASTKGPSVFPLAPSSKSTSGGTAALGCLVKDYFPEPVTVSWNSGALTSGVHTFPAVLQSSGLYSLSSVVTVPSSSLGTQTYICNVNHKPSNTKVDKKVEPKSCDKTHTCPPCPAPEAAGGPSVFLFPPKPKDTLMISRTPEVTCVVVDVSHEDPEVKFNWYVDGVEVHNAKTKPREEQYASTYRVVSVLTVLHQDWLNGKEYKCKVSNKALPAPIEKTISKAKGQPREPQVYTLPPSRCELTKNQVSLSCAVKGFYPSDIAVEWESNGQPENNYKTTPPVLDSDGSFFLVSKLTVDKSRWQQGNVFSCSVMHEALHNHYTQKSLSLSPDYKDDDDK
# chain: EPKSSDKTHTCPPCPAPELLGGPSVFLFPPKPKDTLMISRTPEVTCVVVDVSHEDPEVKFNWYVDGVEVHNAKTKPREEQYNSTYRVVSVLTVLHQDWLNGKEYKCKVSNKALPAPIEKTISKAKGQPREPQVCTLPPSRDELTKNQVSLWCLVKGFYPSDIAVEWESNGQPENNYKTTPPVLDSDGSFFLYSKLTVDKSRWQQGNVFSCSVMHEALHNRYTQKSLSLSP
# light: DIVMTQSPLSLPVTPGEPASISCRSSQSLVHSNRNTYLHWYQQKPGQAPRLLIYKVSNRFSGVPDRFSGSGSGTDFTLKISRVEAEDVGVYYCGQGTQYPYTFGQGTKLEIKRTVAAPSVFIFPPSDEQLKSGTASVVCLLNNFYPREAKVQWKVDNALQSGNSQESVTEQDSKDSTYSLSSTLTLSKADYEKHKVYACEVTHQGLSSPVTKSFNRGEC
# B2: GLS3000 Y32F one-arm antibody (antibody, human IgG1, kappa, L234A L235A, N297A, name in Kabat numbering)
# heavy: B1 heavy
# chain: B1 chain
# light: B1 light with Y37F, Y99V
# B3: GLS3000 Y96F one-arm antibody (antibody, human IgG1, kappa, L234A L235A, N297A, name in Kabat numbering)
# heavy: B1 heavy
# chain: B1 chain
# light: B1 light with Y99V, Y101F
# B4: GLS3000 Y32A one-arm antibody (antibody, human IgG1, kappa, L234A L235A, N297A, name in Kabat numbering)
# heavy: B1 heavy
# chain: B1 chain
# light: B1 light with Y37A, Y99V
# B5: GLS3000 Y32D one-arm antibody (antibody, human IgG1, kappa, L234A L235A, N297A, name in Kabat numbering)
# heavy: B1 heavy
# chain: B1 chain
# light: B1 light with Y37D, Y99V
# B6: GLS3000 Y96L one-arm antibody (antibody, human IgG1, kappa, L234A L235A, N297A, name in Kabat numbering)
# heavy: B1 heavy
# chain: B1 chain
# light: B1 light with Y99V, Y101L
# B7: GLS3000 Y96D one-arm antibody (antibody, human IgG1, kappa, L234A L235A, N297A, name in Kabat numbering)
# heavy: B1 heavy
# chain: B1 chain
# light: B1 light with Y99V, Y101D
# B8: GLS3000 Y96E one-arm antibody (antibody, human IgG1, kappa, L234A L235A, N297A, name in Kabat numbering)
# heavy: B1 heavy
# chain: B1 chain
# light: B1 light with Y99V, Y101E
# B9: GLS3000 Y32P one-arm antibody (antibody, human IgG1, kappa, L234A L235A, N297A, name in Kabat numbering)
# heavy: B1 heavy
# chain: B1 chain
# light: B1 light with Y37P, Y99V
# B10: GLS3000 Y96H one-arm antibody (antibody, human IgG1, kappa, L234A L235A, N297A, name in Kabat numbering)
# heavy: B1 heavy
# chain: B1 chain
# light: B1 light with Y99V, Y101H
# Target: T1, CD3ε homodimer protein (human, UniProt P07766 23-126, limits assumed)
# T1 construct: also called CD3 (CD3ε)
# Assay: SPR Biacore T200, CD3ε homodimer on chip;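 further: Light-chain single-residue variant antibodies injected over amine-coupled CD3ε homodimer on a CM4 chip at 25 °C, bound amount divided by that of the GLS3000-containing antibody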
# T1 sequence (P07766 23-126 limits assumed): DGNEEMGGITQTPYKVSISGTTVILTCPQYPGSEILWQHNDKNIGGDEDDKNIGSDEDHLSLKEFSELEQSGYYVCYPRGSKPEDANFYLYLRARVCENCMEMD
row,ratio of amount bound vs unaltered GLS3000,Binder
1,0.63,B1
2,0.29,B2
3,1.17,B3
4,0.24,B4
5,0.23,B5
6,0.32,B6
7,0.17,B7
8,0.17,B8
9,0.24,B9
10,0.23,B10
